Bounds are passed on as bounds.

Experiment [1] addresses KRAS G12V peptide on HLA-DRA*01:01 / HLA-DRB1*07:01 (human). The experiment in a line: NFAT-luciferase; peptide titration in the Jurkat-NFAT and COS-7 system; full-length, on cells. To be noted: chains Valpha:Vbeta.
Experiment [2] concerns the target KRAS G12V presented by HLA-DRB1*07:01 (human), P01116. The experiment in a line: cell-based or functional assay.

B1: 9976-TCR38-2 (protein)
chain 1: QSVTQLGSHVSVSEGALVLLRCNYSSSVPPYLFWYVQYPNQGLQLLLKYTTGATLVKGINGFEAEFKKSETSFHLTKPSAHMSDAAEYFCAVTEPGGYQKVTFGTGTKLQVIP
chain 2: AVVSQHPSRVICKSGTSVKIECRSLDFQATTMFWYRQFPKQSLMLMATSNEGSKATYEQGVEKDKFLINHASLTLSTLTVTSAHPEDSSFYICSATGQHAGANVLTFGAGSRLTVL
Molecule B1 showed a lowest peptide concentration with reactivity in experiment [1] of under 1 ng/mL.

B2: 9976-TCR38-2 (TCR)
TCR alpha: AQSVTQLGSHVSVSEGALVLLRCNYSSSVPPYLFWYVQYPNQGLQLLLKYTTGATLVKGINGFEAEFKKSETSFHLTKPSAHMSDAAEYFCAVTEPGGYQKVTFGTGTKLQVIPNIQNPEPAVNIQNPEPAVYQLKDPRSQDSTLCLFTDFDSQINVPKTMESGTFITDKTVLDMKAMDSKSNGAIAWSNQTSFTCQDIFKETNATYPSSDVPCDATLTEKSFETDMNLNFQNLLVIVLRILLLKVAGFNLLMTLRLWSS
TCR beta: GAVVSQHPSRVICKSGTSVKIECRSLDFQATTMFWYRQFPKQSLMLMATSNEGSKATYEQGVEKDKFLINHASLTLSTLTVTSAHPEDSSFYICSATGQHAGANVLTFGAGSRLTVLEDLRNEDLRNVTPPKVSLFEPSKAEIANKQKATLVCLARGFFPDHVELSWWVNGKEVHSGVSTDPQAYKESNYSYCLSSRLRVSATFWHNPRNHFRCQVQFHGLSEEDKWPEGSPKPVTQNISAEAWGRADCGITSASYQQGVLSATILYEILLGKATLYAVLVSTLVVMAMVKRKNS
Regarding B2, in experiment [2], the peptide concentration at which reactivity is still seen (peptide titration, Jurkat-NFAT & COS-7 system) amounted to 1 ng/mL.

(Values after patent US20250216381A1.)
